Laboratory results: patent US12371675B2, “Process and microorganism for synthesis of adipic acid from carboxylic acids” (THE GOVERNING COUNCIL OF THE UNIVERSITY OF TORONTO, priority 2015, dated 2025)
Where “and” joins values, the source holds several entries; their conditions need not be identical. Equal values may be shown once.

Columns and labels:
[1] = CAR reductase activity, NADPH oxidation at 340 nm; assay type: biochemical; conditions: ND = no activity was detected
Procedure: Reductase activity was measured spectrophotometrically by following the oxidation of NADPH depletion at 340 nm.
It has been shown that the N. iowensis CAR has a broad substrate range, though its maximal activity was usually observed with aromatic substrates such as benzoic and cinnamic acids. CARs gene sequences homologues to the N. iowensis CAR (Uniprot number: Q6RKB1), were selected from GenBank database. Based on presence of adenylation (AMP-binding PF00501) and reduction (NAD-binding PF07993) domains accompanied with phosphopantetheinyl binding motif (PF00530) 13 CAR genes (mostly from Mycobacterium) were cloned and expressed in E. coli. (Table 4). As CAR activation enzymes, phosphopantetheinyl transferases (PPTs) from E. coli (P19925) and Bacillus subtilis (P39135), were used which were co-expressed with the selected CAR genes from a separate plasmid. Using 1-liter E. coli cultures with overnight induction by IPTG, 12 soluble CAR proteins were purified using affinity chromatography on a Ni-NTA resin.

[2] = In vitro biotransformation by CARs coupled with aldehyde reductase PP_3370; assay type: biochemical; conditions: Table 12 title: 10 mM adipic acid (12 h) in vitro, CARs coupled with PP3370
[3] = as above; assay type: biochemical; conditions: Table 12 title: 10 mM 4-hydroxybutyric acid (12 h) in vitro, CARs coupled with PP3370
[4] = In vivo whole cell biotransformation by E. coli expressing CARs; assay type: cell-based; conditions: 24 h; for In vivo conversion efficiency (%) to: 1,4-butanediol: 10 mM 4-hydroxybutyric acid; for In vivo conversion efficiency (%) to: 1,6-hexanediol / In vivo conversion efficiency (%) to: 6-hydroxyhexanoic acid: 10 mM adipic acid
Procedure: E. coli cells expressing recombinant CARs with BSU03570 phosphopantetheinyl transferase were grown on LB media with […], supplemented with 2% glycerol aerobically on 37° C., until the culture optical density (OD 600 nm) reached 0.6-0.8. At this point protein expression was induced with 0.4 mM IPTG and substrate (adipic acid or 4-hydroxybutyric acid) for final 10 mM concentration was added. Samples were taken at 6 h, 24 h and 48 h, centrifuged, supernatant was filtered through 10 kDa centrifugal filters. Products were analyzed with HPLC or LC-MS. Negative control experiments were performed using E. coli cells harboring empty plasmids. All results of in vivo experiments are means from at least two independent determinations.

Row | Molecule | Activity [U/mg protein] 4-hydroxybutyric acid, 5 mM [1] | Activity [U/mg protein] adipic acid, 5 mM [1] | In vitro conversion efficiency % to: 1,6-hexanediol [2] | In vitro conversion efficiency % to: 6-hydroxyhexanoic acid [2] | In vivo conversion efficiency (%) to: 1,4-butanediol [3] | In vivo conversion efficiency (%) to: 1,4-butanediol [4] | In vivo conversion efficiency (%) to: 1,6-hexanediol [4] | In vivo conversion efficiency (%) to: 6-hydroxyhexanoic acid [4]
1 | MAP_1040c: carboxylate reductase (CAR) from M. paratuberculosis ATCC BAA-968 (protein) MSTATHDERLDRRVHELIATDPQFAAAQPDPAITAALEQPGLRLPQIIRTVLDGYADRPALGQRVVEFVTDAKTGRTSAQLLPRFETITYSEVAQRVSALGRALSDDAVHPGDRVCVLGFNSVDYATIDMALGAIGAVSVPLQTSAAISSLQPIVAETEPTLIASSVNQLSDAVQLITGAEQAPTRLVVFDYHPQVDDQREAVQDAAARLSSTGVAVQTLAELLERGKDLPAVAEPPADEDSLALLIYTSGSTGAPKGAMYPQSNVGKMWRRGSKNWFGESAASITLNFMPMSHVMGRSILYGTLGNGGTAYFAARSDLSTLLEDLELVRPTELNFVPRIWETLYGEFQRQVERRLSEAGDAGERRAVEAEVLAEQRQYLLGGRFTFAMTGSAPISPELRNWVESLLEMHLMDGYGSTEAGMVLFDGEIQRPPVIDYKLVDVPDLGYFSTDRPHPRGELLLRTENMFPGYYKRAETTAGVFDEDGYYRTGDVFAEIAPDRLVYVDRRNNVLKLAQGEFVTLAKLEAVFGNSPLIRQIYVYGNSAQPYLLAVVVPTEEALASGDPETLKPKIADSLQQVAKEAGLQSYEVPRDFIIETTPFSLENGLLTGIRKLAWPKLKQHYGERLEQMYADLAAGQANELAELRRNGAQAPVLQTVSRAAGAMLGSAASDLSPDAHFTDLGGDSLSALTFGNLLREIFDVDVPVGVIVSPANDLAAIASYIEAERQGSKRPTFASVHGRDATVVRAADLTLDKFLDAETLAAAPNLPKPATEVRTVLLTGATGFLGRYLALEWLERMDMVDGKVIALVRARSDEEARARLDKTFDSGDPKLLAHYQQLAADHLEVIAGDKGEANLGLGQDVWQRLADTVDVIVDPAALVNHVLPYSELFGPNALGTAELIRLALTSKQKPYTYVSTIGVGDQIEPGKFVENADIRQMSATRAINDSYANGYGNSKWAGEVLLREAHDLCGLPVAVFRCDMILADTTYAGQLNLPDMFTRLMLSLVATGIAPGSFYELDADGNRQRAHYDGLPVEFIAAAISTLGSQITDSDTGFQTYHVMNPYDDGVGLDEYVDWLVDAGYSIERIADYSEWLRRFETSLRALPDRQRQYSLLPLLHNYRTPEKPINGSIAPTDVFRAAVQEAKIGPDKDIPHVSPPVIVKYITDLQLLGLL | 0.014 ± 0.006 U/mg protein | 0.053 ± 0.006 U/mg protein | 15.4 ± 1.7% | 5.8 ± 0.2% | 81.6 ± 18.3% | 81.6 ± 18.3% | 15.4 ± 1.7% | 5.8 ± 0.2%
2 | MSMEG_2956: carboxylate reductase (CAR) from M. smegmatis ATCC 700084 (protein) MTIETREDRFNRRIDHLFETDPQFAAARPDEAISAAAADPELRLPAAVKQILAGYADRPALGKRAVEFVTDEEGRTTAKLLPRFDTITYRQLAGRIQAVTNAWHNHPVNAGDRVAILGFTSVDYTTIDIALLELGAVSVPLQTSAPVAQLQPIVAETEPKVIASSVDFLADAVALVESGPAPSRLVVFDYSHEVDDQREAFEAAKGKLAGTGVVVETITDALDRGRSLADAPLYVPDEADPLTLLIYTSGSTGTPKGAMYPESKTATMWQAGSKARWDETLGVMPSITLNFMPMSHVMGRGILCSTLASGGTAYFAARSDLSTFLEDLALVRPTQLNFVPRIWDMLFQEYQSRLDNRRAEGSEDRAEAAVLEEVRTQLLGGRFVSALTGSAPISAEMKSWVEDLLDMHLLEGYGSTEAGAVFIDGQIQRPPVIDYKLVDVPDLGYFATDRPYPRGELLVKSEQMFPGYYKRPEITAEMFDEDGYYRTGDIVAELGPDHLEYLDRRNNVLKLSQGEFVTVSKLEAVFGDSPLVRQIYVYGNSARSYLLAVVVPTEEALSRWDGDELKSRISDSLQDAARAAGLQSYEIPRDFLVETTPFTLENGLLTGIRKLARPKLKAHYGERLEQLYTDLAEGQANELRELRRNGADRPVVETVSRAAVALLGASVTDLRSDAHFTDLGGDSLSALSFSNLLHEIFDVDVPVGVIVSPATDLAGVAAYIEGELRGSKRPTYASVHGRDATEVRARDLALGKFIDAKTLSAAPGLPRSGTEIRTVLLTGATGFLGRYLALEWLERMDLVDGKVICLVRARSDDEARARLDATFDTGDATLLEHYRALAADHLEVIAGDKGEADLGLDHDTWQRLADTVDLIVDPAALVNHVLPYSQMFGPNALGTAELIRIALTTTIKPYVYVSTIGVGQGISPEAFVEDADIREISATRRVDDSYANGYGNSKWAGEVLLREAHDWCGLPVSVFRCDMILADTTYSGQLNLPDMFTRLMLSLVATGIAPGSFYELDADGNRQRAHYDGLPVEFIAEAISTIGSQVTDGFETFHVMNPYDDGIGLDEYVDWLIEAGYPVHRVDDYATWLSRFETALRALPERQRQASLLPLLHNYQQPSPPVCGAMAPTDRFRAAVQDAKIGPDKDIPHVTADVIVKYISNLQMLGLL |  | 0.078 ± 0.001 U/mg protein | 27.7 ± 10.3% | 34.2 ± 9.1% | 59.4 ± 7.3% | 59.4 ± 7.3% | 27.7 ± 10.3% | 34.2 ± 9.1%
3 | MSMEG_5739: carboxylate reductase (CAR) from M. smegmatis ATCC 700084 (protein) MTSDVHDATDGVTETALDDEQSTRRIAELYATDPEFAAAAPLPAVVDAAHKPGLRLAEILQTLFTGYGDRPALGYRARELATDEGGRTVTRLLPRFDTLTYAQVWSRVQAVAAALRHNFAQPIYPGDAVATIGFASPDYLTLDLVCAYLGLVSVPLQHNAPVSRLAPILAEVEPRILTVSAEYLDLAVESVRDVNSVSQLVVFDHHPEVDDHRDALARAREQLAGKGIAVTTLDAIADEGAGLPAEPIYTADHDQRLAMILYTSGSTGAPKGAMYTEAMVARLWTMSFITGDPTPVINVNFMPLNHLGGRIPISTAVQNGGTSYFVPESDMSTLFEDLALVRPTELGLVPRVADMLYQHHLATVDRLVTQGADELTAEKQAGAELREQVLGGRVITGFVSTAPLAAEMRAFLDITLGAHIVDGYGLTETGAVTRDGVIVRPPVIDYKLIDVPELGYFSTDKPYPRGELLVRSQTLTPGYYKRPEVTASVFDRDGYYHTGDVMAETAPDHLVYVDRRNNVLKLAQGEFVAVANLEAVFSGAALVRQIFVYGNSERSFLLAVVVPTPEALEQYDPAALKAALADSLQRTARDAELQSYEVPADFIVETEPFSAANGLLSGVGKLLRPNLKDRYGQRLEQMYADIAATQANQLRELRRAAATQPVIDTLTQAAATILGTGSEVASDAHFTDLGGDSLSALTLSNLLSDFFGFEVPVGTIVNPATNLAQLAQHIEAQRTAGDRRPSFTTVHGADATEIRASELTLDKFIDAETLRAAPGLPKVTTEPRTVLLSGANGWLGRFLTLQWLERLAPVGGTLITIVRGRDDAAARARLTQAYDTDPELSRRFAELADRHLRVVAGDIGDPNLGLTPEIWHRLAAEVDLVVHPAALVNHVLPYRQLFGPNVVGTAEVIKLALTERIKPVTYLSTVSVAMGIPDFEEDGDIRTVSPVRPLDGGYANGYGNSKWAGEVLLREAHDLCGLPVATFRSDMILAHPRYRGQVNVPDMFTRLLLSLLITGVAPRSFYIGDGERPRAHYPGLTVDFVAEAVTTLGAQQREGYVSYDVMNPHDDGISLDVFVDWLIRAGHPIDRVDDYDDWVRRFETALTALPEKRRAQTVLPLLHAFRAPQAPLRGAPEPTEVFHAAVRTAKVGPGDIPHLDEALIDKYIRDLREFGLI | 0.032 ± 0.024 U/mg protein | 0.054 ± 0.004 U/mg protein | 57.2 ± 0.6% | 9.1 ± 0.7% | 86.1 ± 5.2% | 86.1±5.2% | 53.8±1.4% and 57.2 ± 0.6% | 9.1% and 9.1 ± 0.7%
